Assays:
Assay in all cases: holdup assay
Set-up in all cases: key: below the threshold = too weak to quantify, mostly under pKd 3.1 to 4
APBA1_1, Q02410 = biological target: T1, APBA1_1, Q02410
T1 sequence (Q02410 651-752, limits assumed, looked up): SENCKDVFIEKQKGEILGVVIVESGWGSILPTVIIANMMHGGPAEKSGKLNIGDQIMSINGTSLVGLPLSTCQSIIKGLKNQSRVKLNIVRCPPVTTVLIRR

APBA1_2, Q02410 = biological target: T2, APBA1_2, Q02410
T2 sequence (Q02410 742-832, limits assumed, looked up): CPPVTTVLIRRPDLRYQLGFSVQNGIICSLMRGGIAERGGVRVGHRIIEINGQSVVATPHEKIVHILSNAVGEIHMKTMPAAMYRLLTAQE

DFNB31_2, Q9P202 = biological target: T3, DFNB31_2, Q9P202
T3 sequence (Q9P202 274-371, limits assumed, looked up): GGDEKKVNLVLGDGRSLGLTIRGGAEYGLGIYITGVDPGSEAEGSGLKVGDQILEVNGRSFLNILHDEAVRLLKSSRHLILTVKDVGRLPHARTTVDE

DLG4_3, P78352 = biological target: DLG4_3, P78352
Sequence of DLG4_3, P78352 (P78352 306-403): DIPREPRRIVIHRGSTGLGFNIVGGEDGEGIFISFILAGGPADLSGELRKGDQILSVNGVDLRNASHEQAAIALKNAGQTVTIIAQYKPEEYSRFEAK

FRMPD1, Q5SYB0 = biological target: T4, FRMPD1, Q5SYB0
T4 sequence (Q5SYB0 52-145, limits assumed, looked up): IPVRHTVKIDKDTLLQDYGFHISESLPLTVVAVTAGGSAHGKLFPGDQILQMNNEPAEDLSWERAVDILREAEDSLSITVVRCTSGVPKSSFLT

GIPC2, Q8TF65 = biological target: GIPC2, Q8TF65
Sequence of GIPC2, Q8TF65 (Q8TF65 112-203): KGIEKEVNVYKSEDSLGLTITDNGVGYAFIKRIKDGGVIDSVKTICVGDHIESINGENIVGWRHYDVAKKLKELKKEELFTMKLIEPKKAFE

GOPC, Q9HD26 = biological target: GOPC, Q9HD26
GRIP1_4, Q9Y3R0 = biological target: T5, GRIP1_4, Q9Y3R0
T5 sequence (Q9Y3R0 467-571, limits assumed, looked up): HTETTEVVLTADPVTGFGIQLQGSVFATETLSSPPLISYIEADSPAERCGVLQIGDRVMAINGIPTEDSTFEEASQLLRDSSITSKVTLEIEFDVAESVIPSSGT

GRIP1_5, Q9Y3R0 = biological target: T6, GRIP1_5, Q9Y3R0
T6 sequence (Q9Y3R0 568-668, limits assumed, looked up): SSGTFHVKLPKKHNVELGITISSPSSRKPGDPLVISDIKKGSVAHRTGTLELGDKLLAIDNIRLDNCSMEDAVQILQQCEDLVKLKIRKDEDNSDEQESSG

HTRA1, Q92743 = biological target: HTRA1, Q92743
Sequence of HTRA1, Q92743 (Q92743 360-477): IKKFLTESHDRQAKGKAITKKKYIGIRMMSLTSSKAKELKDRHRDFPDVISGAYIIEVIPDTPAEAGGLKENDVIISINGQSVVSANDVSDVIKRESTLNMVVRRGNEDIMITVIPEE

HTRA3, P83110 = biological target: T7, HTRA3, P83110
T7 sequence (P83110 354-453, limits assumed, looked up): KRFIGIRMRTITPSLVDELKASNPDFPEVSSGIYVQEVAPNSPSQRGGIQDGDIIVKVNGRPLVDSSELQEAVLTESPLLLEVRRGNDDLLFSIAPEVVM

HTRA4, P83105 = biological target: T8, HTRA4, P83105
T8 sequence (P83105 378-476, limits assumed, looked up): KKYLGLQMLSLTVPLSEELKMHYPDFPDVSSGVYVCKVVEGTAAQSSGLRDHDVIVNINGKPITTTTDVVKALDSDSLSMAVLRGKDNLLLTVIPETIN

Inadl_1, Q8NI35 = biological target: Inadl_1, Q8NI35
Sequence of Inadl_1, Q8NI35 (Q8NI35 113-229): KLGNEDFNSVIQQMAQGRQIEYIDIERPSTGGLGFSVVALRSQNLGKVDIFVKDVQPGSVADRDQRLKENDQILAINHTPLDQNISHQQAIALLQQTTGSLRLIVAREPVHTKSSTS

Inadl_2, Q8NI35 = biological target: Inadl_2, Q8NI35
Sequence of Inadl_2, Q8NI35 (Q8NI35 238-335): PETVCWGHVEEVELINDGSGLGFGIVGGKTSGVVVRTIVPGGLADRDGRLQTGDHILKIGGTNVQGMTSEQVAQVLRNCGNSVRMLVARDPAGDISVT

Inadl_3, Q8NI35 = biological target: Inadl_3, Q8NI35
Sequence of Inadl_3, Q8NI35 (Q8NI35 359-469): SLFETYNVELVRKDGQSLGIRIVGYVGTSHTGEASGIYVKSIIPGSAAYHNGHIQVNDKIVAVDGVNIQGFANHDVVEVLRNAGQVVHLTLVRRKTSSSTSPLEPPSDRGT

Inadl_4, Q8NI35 = biological target: Inadl_4, Q8NI35
Sequence of Inadl_4, Q8NI35 (Q8NI35 547-651): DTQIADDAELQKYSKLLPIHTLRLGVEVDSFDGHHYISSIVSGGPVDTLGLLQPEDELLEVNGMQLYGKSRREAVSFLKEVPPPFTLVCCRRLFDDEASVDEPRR

MAGI2_4, Q86UL8 = biological target: MAGI2_4, Q86UL8
Sequence of MAGI2_4, Q86UL8 (Q86UL8 772-865): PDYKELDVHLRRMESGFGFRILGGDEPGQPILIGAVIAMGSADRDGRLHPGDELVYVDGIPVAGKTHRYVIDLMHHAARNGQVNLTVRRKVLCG

MPDZ_10, O75970 = biological target: T9, MPDZ_10, O75970
T9 sequence (O75970 1624-1722, limits assumed, looked up): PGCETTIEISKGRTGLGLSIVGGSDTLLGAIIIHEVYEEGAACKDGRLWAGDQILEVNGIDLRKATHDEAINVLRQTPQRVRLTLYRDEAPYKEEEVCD

NHERF4_1, Q86UT5-2 = biological target: NHERF4_1, Q86UT5-2
Sequence of NHERF4_1, Q86UT5-2 (Q86UT5 other isoform, or with tags, fused parts or gaps): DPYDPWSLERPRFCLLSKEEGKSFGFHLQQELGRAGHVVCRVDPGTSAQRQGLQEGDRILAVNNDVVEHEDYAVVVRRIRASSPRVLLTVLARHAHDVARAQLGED

NOS1, P29475 = biological target: NOS1, P29475
Sequence of NOS1, P29475 (P29475 9-101): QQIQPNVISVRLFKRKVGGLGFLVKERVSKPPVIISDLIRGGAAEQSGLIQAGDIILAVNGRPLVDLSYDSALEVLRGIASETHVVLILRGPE

PDZRN3_1, Q9UPQ7 = biological target: T10, PDZRN3_1, Q9UPQ7
T10 sequence (Q9UPQ7 244-349, limits assumed, looked up): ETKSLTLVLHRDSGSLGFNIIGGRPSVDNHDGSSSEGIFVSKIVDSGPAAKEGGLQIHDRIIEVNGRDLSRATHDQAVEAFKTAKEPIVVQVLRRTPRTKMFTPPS

SCRIB_2, Q14160 = biological target: SCRIB_2, Q14160
Sequence of SCRIB_2, Q14160 (Q14160 857-960): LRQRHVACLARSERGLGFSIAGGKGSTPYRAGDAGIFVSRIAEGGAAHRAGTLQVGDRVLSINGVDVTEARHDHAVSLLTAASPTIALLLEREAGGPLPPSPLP

SCRIB_3, Q14160 = biological target: SCRIB_3, Q14160
Sequence of SCRIB_3, Q14160 (Q14160 999-1103): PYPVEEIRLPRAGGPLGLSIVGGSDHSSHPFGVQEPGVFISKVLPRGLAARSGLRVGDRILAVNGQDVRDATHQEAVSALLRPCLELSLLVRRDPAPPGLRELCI

TIAM2, Q8IVF5 = biological target: T11, TIAM2, Q8IVF5
T11 sequence (Q8IVF5 885-986, limits assumed, looked up): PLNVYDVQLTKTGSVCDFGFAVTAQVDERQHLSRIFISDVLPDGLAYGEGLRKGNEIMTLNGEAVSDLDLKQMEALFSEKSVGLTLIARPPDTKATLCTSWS

TJP2_1, Q9UDY2 = biological target: TJP2_1, Q9UDY2
Sequence of TJP2_1, Q9UDY2 (Q9UDY2 24-128): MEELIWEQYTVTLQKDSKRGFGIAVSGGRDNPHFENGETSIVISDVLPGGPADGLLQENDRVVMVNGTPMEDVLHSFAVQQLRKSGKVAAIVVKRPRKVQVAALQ

TJP3_3, O95049 = biological target: T12, TJP3_3, O95049
T12 sequence (O95049 375-456, limits assumed, looked up): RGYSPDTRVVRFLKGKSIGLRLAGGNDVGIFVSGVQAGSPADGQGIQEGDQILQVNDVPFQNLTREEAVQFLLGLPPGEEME

[1] = plain residues with an end cap or a label only (N-terminal biotin on a linker: ttds)
[2] = plain residues with an end cap or a label only (N-terminal biotin on a linker: ado-ado)
[3] = plain residues with an end cap or a label only (N-terminal biotin on a linker: ahx)

B1: PBK, Q96KB5 (peptide)
chain: HIVEALETDV
APBA1_1, Q02410; [1]
  pKd: below the threshold
APBA1_2, Q02410; [1]
  pKd: 4.27
DFNB31_2, Q9P202; [1]
  pKd: below the threshold
DLG4_3, P78352; [1]
  pKd: below the threshold
FRMPD1, Q5SYB0; [1]
  pKd: below the threshold
GIPC2, Q8TF65; [1]
  pKd: 4.55
GOPC, Q9HD26; [1]
  pKd: below the threshold
GRIP1_4, Q9Y3R0; [1]
  pKd: below the threshold
GRIP1_5, Q9Y3R0; [1]
  pKd: below the threshold
HTRA1, Q92743; [1]
  pKd: below the threshold
HTRA3, P83110; [1]
  pKd: below the threshold
HTRA4, P83105; [1]
  pKd: below the threshold
Inadl_1, Q8NI35; [1]
  pKd: below the threshold
Inadl_2, Q8NI35; [1]
  pKd: below the threshold
Inadl_3, Q8NI35; [1]
  pKd: 4.46
Inadl_4, Q8NI35; [1]
  pKd: below the threshold
MAGI2_4, Q86UL8; [1]
  pKd: 4.4
MPDZ_10, O75970; [1]
  pKd: below the threshold
NHERF4_1, Q86UT5-2; [1]
  pKd: below the threshold
NOS1, P29475; [1]
  pKd: below the threshold
PDZRN3_1, Q9UPQ7; [1]
  pKd: below the threshold
SCRIB_2, Q14160; [1]
  pKd: 5.32
SCRIB_3, Q14160; [1]
  pKd: 5.18
TIAM2, Q8IVF5; [1]
  pKd: below the threshold
TJP2_1, Q9UDY2; [1]
  pKd: below the threshold
TJP3_3, O95049; [1]
  pKd: below the threshold

B2: HTR2C, P28335 (peptide)
chain: SVVSERISSV
APBA1_1, Q02410; [2]
  pKd: below the threshold
APBA1_2, Q02410; [2]
  pKd: 3.87
DFNB31_2, Q9P202; [2]
  pKd: below the threshold
DLG4_3, P78352; [2]
  pKd: below the threshold
FRMPD1, Q5SYB0; [2]
  pKd: below the threshold
GIPC2, Q8TF65; [2]
  pKd: below the threshold
GOPC, Q9HD26; [2]
  pKd: below the threshold
GRIP1_4, Q9Y3R0; [2]
  pKd: below the threshold
GRIP1_5, Q9Y3R0; [2]
  pKd: below the threshold
HTRA1, Q92743; [2]
  pKd: 4.18
HTRA3, P83110; [2]
  pKd: below the threshold
HTRA4, P83105; [2]
  pKd: below the threshold
Inadl_1, Q8NI35; [2]
  pKd: below the threshold
Inadl_2, Q8NI35; [2]
  pKd: below the threshold
Inadl_3, Q8NI35; [2]
  pKd: below the threshold
Inadl_4, Q8NI35; [2]
  pKd: below the threshold
MAGI2_4, Q86UL8; [2]
  pKd: below the threshold
MPDZ_10, O75970; [2]
  pKd: 4.29
NHERF4_1, Q86UT5-2; [2]
  pKd: 3.72
NOS1, P29475; [2]
  pKd: 3.58
PDZRN3_1, Q9UPQ7; [2]
  pKd: 3.51
SCRIB_2, Q14160; [2]
  pKd: below the threshold
SCRIB_3, Q14160; [2]
  pKd: 3.71
TIAM2, Q8IVF5; [2]
  pKd: 3.88
TJP2_1, Q9UDY2; [2]
  pKd: below the threshold
TJP3_3, O95049; [2]
  pKd: below the threshold

B3: HTLV1-TAX1, P03409 (peptide)
chain: SEKHFRETEV
APBA1_1, Q02410; [1]
  pKd: below the threshold
APBA1_2, Q02410; [1]
  pKd: 3.56
DFNB31_2, Q9P202; [1]
  pKd: 3.71
DLG4_3, P78352; [1]
  pKd: 5.34
FRMPD1, Q5SYB0; [1]
  pKd: below the threshold
GIPC2, Q8TF65; [1]
  pKd: 3.82
GOPC, Q9HD26; [1]
  pKd: below the threshold
GRIP1_4, Q9Y3R0; [1]
  pKd: below the threshold
GRIP1_5, Q9Y3R0; [1]
  pKd: below the threshold
HTRA1, Q92743; [1]
  pKd: 3.97
HTRA3, P83110; [1]
  pKd: below the threshold
HTRA4, P83105; [1]
  pKd: below the threshold
Inadl_1, Q8NI35; [1]
  pKd: below the threshold
Inadl_2, Q8NI35; [1]
  pKd: below the threshold
Inadl_3, Q8NI35; [1]
  pKd: 3.69
Inadl_4, Q8NI35; [1]
  pKd: below the threshold
MAGI2_4, Q86UL8; [1]
  pKd: 4.49
MPDZ_10, O75970; [1]
  pKd: below the threshold
NHERF4_1, Q86UT5-2; [1]
  pKd: below the threshold
NOS1, P29475; [1]
  pKd: 4.09
PDZRN3_1, Q9UPQ7; [1]
  pKd: 5.1
SCRIB_2, Q14160; [1]
  pKd: 5.76
SCRIB_3, Q14160; [1]
  pKd: 5.34
TIAM2, Q8IVF5; [1]
  pKd: below the threshold
TJP2_1, Q9UDY2; [1]
  pKd: below the threshold
TJP3_3, O95049; [1]
  pKd: below the threshold

B4: GRIN2B, Q13224 (peptide)
chain: EKLSSIESDV
APBA1_1, Q02410; [3]
  pKd: below the threshold
APBA1_2, Q02410; [3]
  pKd: below the threshold
DFNB31_2, Q9P202; [3]
  pKd: below the threshold
DLG4_3, P78352; [3]
  pKd: below the threshold
FRMPD1, Q5SYB0; [3]
  pKd: below the threshold
GIPC2, Q8TF65; [3]
  pKd: 4.33
GOPC, Q9HD26; [3]
  pKd: 3.63
GRIP1_4, Q9Y3R0; [3]
  pKd: below the threshold
GRIP1_5, Q9Y3R0; [3]
  pKd: below the threshold
HTRA1, Q92743; [3]
  pKd: below the threshold
HTRA3, P83110; [3]
  pKd: below the threshold
HTRA4, P83105; [3]
  pKd: below the threshold
Inadl_1, Q8NI35; [3]
  pKd: below the threshold
Inadl_2, Q8NI35; [3]
  pKd: below the threshold
Inadl_3, Q8NI35; [3]
  pKd: 3.91
Inadl_4, Q8NI35; [3]
  pKd: below the threshold
MAGI2_4, Q86UL8; [3]
  pKd: 3.61
MPDZ_10, O75970; [3]
  pKd: 3.84
NHERF4_1, Q86UT5-2; [3]
  pKd: 3.53
NOS1, P29475; [3]
  pKd: below the threshold
PDZRN3_1, Q9UPQ7; [3]
  pKd: 3.7
SCRIB_2, Q14160; [3]
  pKd: 4.34
SCRIB_3, Q14160; [3]
  pKd: 4.28
TIAM2, Q8IVF5; [3]
  pKd: 3.71
TJP2_1, Q9UDY2; [3]
  pKd: below the threshold
TJP3_3, O95049; [3]
  pKd: below the threshold
